Reference: US20060058231A1 (Xencor, published 2006)
Substitutions are numbered along the chain they refer to. Names and notes keep the numbering of the source.

T1: BMPRII receptor/Fc fusion (R&D Systems) (UniProt Q13873 27-151, limits assumed)
T1 construct: not shown: Fc portion of the fusion
T1 sequence (looked up): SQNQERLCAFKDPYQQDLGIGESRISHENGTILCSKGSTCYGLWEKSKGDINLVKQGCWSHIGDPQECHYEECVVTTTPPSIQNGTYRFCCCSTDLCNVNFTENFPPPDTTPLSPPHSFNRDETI

T2: BMPRIb receptor/Fc fusion (R&D Systems) (UniProt O00238 14-126)
T2 construct: also called ALK-6; not shown: Fc portion of the fusion
T2 sequence (looked up): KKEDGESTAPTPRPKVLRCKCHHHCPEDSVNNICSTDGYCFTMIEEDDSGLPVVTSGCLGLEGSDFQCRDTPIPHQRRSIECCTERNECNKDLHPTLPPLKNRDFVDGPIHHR

B1: wild type human BMP-7 (Image clone) (ligand)
chain: STGGKQRSQNRSKTPKNQEALRMASVAENSSSDQRQACKKHELYVSFRDLGWQDWIIAPEGYAAYYCEGECAFPLNSYMNATNHAIVQTLVHFINPETVPKPCCAPTQLNAISVLYFDDSSNVILKKYRNMVVRACGCH
notes: The pro-protein is processed to a dimeric mature BMP-7; also called WT; wild-type BMP-7
B2: FXS labeled BMP7 (ligand)
BMP-7 mature domain: B1 chain with Y65N, S120D
modifications: labeled with C6-FXS (FITC-derived NHS fluorophore); labeled sites not given
notes: the C6-FXS form of the labeled BMP-7 that the list holds jointly as 1.m9; also called BMP-7 variant Y65N/S120D labeled with C6-FXS

Tests used:
[1] = biological target: T3, BMPRIa receptor/Fc fusion (R&D Systems) (UniProt P36894 24-152); test: plate direct binding assay (ELISA-like): BMP-7 captured by anti-BMP-7 antibody, receptor-Fc titrated (x axis Receptor, ug/mL), anti-human IgG-HRP, absorbance 450 nm
T3 construct: also called ALK-3; not shown: Fc portion of the fusion

[2] = biological target: T1, BMPRII receptor/Fc fusion (R&D Systems); test: as above
[3] = biological target: T2, BMPRIb receptor/Fc fusion (R&D Systems); test: as above
[4] = biological target: T4, ActRIIa receptor/Fc fusion (R&D Systems) (UniProt P27037 20-134, limits assumed); test: as above
T4 construct: not shown: Fc portion of the fusion

[5] = biological target: T3, BMPRIa receptor/Fc fusion (R&D Systems); test: fluorescence anisotropy, labeled BMP-7 added to serial dilutions of receptor/Fc fusion (x axis [receptor] uM)
Procedure: (§1) The binding of selected variants to BMP receptors, antibodies, and inhibitors was characterized using a fluorescence binding assay and the AlphaScreen™ assay. […] Small-scale (25 uL) reactions were performed using 15 uM BMP-7 and dye concentrations ranging from 0.3 uM to 1000 uM. […] The reaction was quenched with Tris pH 8.0 and cleaned up using a PD-10 desalt column; the second fraction was used in the experiments described below. BMP-7 was also labeled with C6-FXS, a FITC-derived fluorophore with a 6-carbon spacer between the fluor and the NHS group. Labeling conditions with various ratios of protein to dye were tested, in 20 mM PO4, 500 mM NaCl, pH 7 solution. After establishing labeling conditions, 500 ug Y65N/S120D was labeled. Excess dye was removed by centrifugation and a PD-10 desalt column.
(§2) The flourescently labeled BMP-7 was added to serial dilutions of receptor/Fc fusions of the BMP-7 receptors ActRIa, BMPRIa, BMPRIb, ActRIIa, ActRIIb, and BMPRII (R&D Systems). Experiments were also performed in which the fluorescently labeled BMP-7 was added to serial dilutions of noggin/Fc or gremlin (R&D Systems). The labeled BMP-7 and receptor or inhibitor was allowed to incubate, and the fluorescence polarization and intensity was measured using a TopCount plate reader.

[6] = biological target: T5, ActRIIb receptor/Fc fusion (R&D Systems) (UniProt Q13705 19-134, limits assumed); test: as above
T5 construct: not shown: Fc portion of the bought fusion
Procedure: as §1, §2

[7] = biological target: T4, ActRIIa receptor/Fc fusion (R&D Systems); test: as above
Procedure: as §1, §2

T4 sequence (P27037 20-134 limits assumed): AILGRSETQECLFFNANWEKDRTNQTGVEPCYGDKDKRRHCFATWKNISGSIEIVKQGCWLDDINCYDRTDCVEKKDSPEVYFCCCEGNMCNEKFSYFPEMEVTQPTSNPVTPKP
T3 sequence (P36894 24-152 limits assumed): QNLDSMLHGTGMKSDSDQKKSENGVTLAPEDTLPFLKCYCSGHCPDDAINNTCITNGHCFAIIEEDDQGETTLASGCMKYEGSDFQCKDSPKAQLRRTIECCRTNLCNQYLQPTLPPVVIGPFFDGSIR
T5 sequence (Q13705 19-134 limits assumed): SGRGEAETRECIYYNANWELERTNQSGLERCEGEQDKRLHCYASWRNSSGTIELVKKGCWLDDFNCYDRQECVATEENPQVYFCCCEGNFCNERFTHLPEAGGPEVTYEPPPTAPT

| EC50 (read off the curve) [1] [µg/mL] | EC50 (read off the curve) [2] [µg/mL] | EC50 (read off the curve) [3] [µg/mL] | EC50 (read off the curve) [4] [µg/mL] | EC50 (read off the curve) [5] [nM] | EC50 (read off the curve) [6] [nM] | EC50 (read off the curve) [7] [nM] | Binder |
| --- | --- | --- | --- | --- | --- | --- | --- |
| ~1 | ~1 | ~0.7 | ~0.2 | – | – | – | B1 |
| – | – | – | – | ~1000 | ~2000 | ~3000 | B2 |
